Values belong to the binder of their own block, whether it stands above or below them.
Tests used:
[1] = biological target: T1, synthetic peptide of human podoplanin from position 69 to position 88 (human); experiment: ELISA on synthetic peptides
T1 peptide: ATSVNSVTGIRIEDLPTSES

[2] = biological target: T2, human podoplanin on glioblastoma cells LN319 (human, UniProt Q86YL7 23-162); experiment: flow cytometry on LN319 cells, antibody 1 µg/ml
T2 construct: Podoplanin of the LN319 cell line itself; also called LN 319 cells; podoplanin expression strain
T2 chain: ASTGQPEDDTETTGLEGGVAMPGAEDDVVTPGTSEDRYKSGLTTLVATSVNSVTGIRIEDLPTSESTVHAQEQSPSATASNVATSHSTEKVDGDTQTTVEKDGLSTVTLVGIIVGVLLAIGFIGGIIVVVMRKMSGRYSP
Experimental: (§1) Reactivity of the anti-podoplanin antibodies (LpMab-2, LpMab-3, LpMab-7, and LpMab-9) with a podoplanin expression strain was studied by flow cytometry. […] The reaction products were each reacted further with an anti-mouse IgG-FITC antibody (product of Life Technologies) at 4° C. for 30 minutes. As a negative control, only the secondary antibody of each of them was used. Fluorescence intensity was measured using EC800 (product of Sony).

[3] = biological target: T3, human podoplanin on mesothelial cells Met-5A (human, UniProt Q86YL7 23-162); experiment: flow cytometry on Met-5A cells, antibody 1 µg/ml
T3 construct: Podoplanin of the cell line itself; also called normal mesothelial cells; normal epithelial cell line (Met-5A)
T3 chain: T2 chain
Experimental: as §1

[4] = biological target: T4, human podoplanin on lung squamous cell cancer tissue (paraffin section) (human, UniProt Q86YL7 23-162); experiment: immunohistostaining of paraffin sections (FIG. 8)
T4 chain: T2 chain
Experimental: (§2) Various paraffin sections were deparaffined in xylene and ethanol solutions. Antigen activation operation was not performed. The endogenous peroxidase was inactivated with 3% H₂O₂. Blocking was performed at room temperature for 10 minutes with SuperBlock (product of Thermo Fisher) and the primary antibody was reacted at room temperature for one hour. After amplification using a LSAB kit (product of Dako), color was developed using DAB (product of Dako).
(§3) LpMab-23 is a cancer cell-specific antibody. […] LpMab-7 used as a positive control reacted with both cancer cells and lymphatic epithelial cells.

[5] = biological target: T5, human podoplanin on esophageal squamous cell cancer tissue (paraffin section) (human, UniProt Q86YL7 23-162); experiment: immunohistostaining of paraffin sections (FIG. 8)
T5 construct: also called esophagus squamous cell cancer
T5 chain: T2 chain
Experimental: as §2, §3

[6] = biological target: T6, human podoplanin on glioblastoma tissue (paraffin section) (human, UniProt Q86YL7 23-162); experiment: immunohistostaining of paraffin sections (FIG. 8)
T6 chain: T2 chain
Experimental: as §2, §3

[7] = biological target: T7, human podoplanin on seminoma tissue (paraffin section) (human, UniProt Q86YL7 23-162); experiment: immunohistostaining of paraffin sections (FIG. 8)
T7 chain: T2 chain
Experimental: as §2, §3

[8] = biological target: T8, human podoplanin on renal epithelial cells HEK-293T (human, UniProt Q86YL7 23-162); experiment: flow cytometry on HEK-293T cells, antibody 1 µg/ml
T8 construct: Podoplanin of the cell line itself; also called normal renal epithelial cells
T8 chain: T2 chain
Experimental: as §1

[9] = biological target: T9, human podoplanin on oral cancer cells HSC3/hPDPN (human, UniProt Q86YL7 23-162); experiment: flow cytometry on HSC3/hPDPN cells, antibody 1 µg/ml
T9 construct: Podoplanin gene expression strain; also called oral cancer cell line
T9 chain: T2 chain
Experimental: as §1

[10] = biological target: T10, human podoplanin on malignant mesothelioma cells Y-MESO14-hPDPN (human, UniProt Q86YL7 23-162); experiment: flow cytometry on Y-MESO14-hPDPN cells, antibody 1 µg/ml
T10 construct: Podoplanin gene expression strain
T10 chain: T2 chain
Experimental: as §1

[11] = biological target: T11, human podoplanin on lung squamous cell cancer cells RERF-LC-AI-hPDPN (human, UniProt Q86YL7 23-162); experiment: flow cytometry on RERF-LC-AI-hPDPN cells, antibody 1 µg/ml
T11 construct: Podoplanin gene expression strain
T11 chain: T2 chain
Experimental: as §1

[12] = biological target: T12, human podoplanin on lymphatic endothelial cells (human, UniProt Q86YL7 23-162); experiment: flow cytometry on lymphatic endothelial cells, antibody 1 µg/ml
T12 construct: Normal cells; cultured cells in flow cytometry, cells in paraffin sections in immunohistostaining (see assay of each row); also called lymphatic epithelial cells; lymphatic cells
T12 chain: T2 chain
Experimental: as §1

[13] = biological target: T13, human podoplanin on normal alveolar epithelial cells (paraffin section) (human, UniProt Q86YL7 23-162); experiment: immunohistostaining of a normal lung paraffin section (FIG. 4D)
T13 construct: also called normal lung
T13 chain: T2 chain
Experimental: (§4) Various paraffin sections were deparaffined in xylene and ethanol solutions. The resulting sections were autoclaved for 20 minutes using an antigen activator reagent (citrate buffer (pH 6.0): product of Dako). Endogenous peroxidase was inactivated with 3% H₂O₂. After blocking at room temperature for 10 minutes with SuperBlock (product of Thermo Fisher), a primary antibody was reacted at room temperature for one hour. After amplification using a LSAB kit (product of Dako), color was developed using DAB (product of Dako).
(§5) LpMab-2 is a tumor-specific antibody. […] LpMab-7 reacted with both (FIG. 4B), which coincided with the data of flow cytometry. LpMab-2 reacted with neither normal alveolar epithelial cells nor lymphatic cells (FIG. 4C). The LpMab-7 on the other hand stained alveolar epithelial cells and lymphatic vessel (FIG. 4D).

[14] = biological target: T14, human podoplanin on testicular tumor cells (paraffin section) (human, UniProt Q86YL7 23-162); experiment: immunohistostaining of a testicular tumor paraffin section (FIG. 4B)
T14 construct: also called tumor portion of testicular tumor
T14 chain: T2 chain
Experimental: as §4, §5

[15] = biological target: T2, human podoplanin on glioblastoma cells …; experiment: flow cytometry on LN319 cells, culture supernatant

B2: rLpMab-7 (antibody, mouse IgG1, kappa)
heavy: DVQLVESGGGLVQPGGSRKLSCAASGFTFSGFGMHWVRQAPEKGLEWVAYISSVSSRIYYADTVKGRFTISRDNPKNTLFLQMTSLRSEDTAMYYCAREQTGPAWFAYWGQGTLVTVSAAKTTPPSVYPLAPGSAAQTNSMVTLGCLVKGYFPEPVTVTWNSGSLSSGVHTFPAVLQSDLYTLSSSVTVPSSTWPSETVTCNVAHPASSTKVDKKIVPRDCGCKPCICTVPEVSSVFIFPPKPKDVLTITLTPKVTCVVVDISKDDPEVQFSWFVDDVEVHTAQTQPREEQFNSTFRSVSELPIMHQDWLNGKEFKCRVNSAAFPAPIEKTISKTKGRPKAPQVYTIPPPKEQMAKDKVSLTCMITDFFPEDITVEWQWNGQPAENYKNTQPIMDTDGSYFVYSKLNVQKSNWEAGNTFTCSVLHEGLHNHHTEKSLSHSPGK
light: DVLMTQTPLSLPVSLGDQASISCRSSRNIVQSTGNTYLEWYLQKPGQSPKLLIFKVSNRFSGVPDRFSGSGSGTDFTLKISRVEAEDLGVYYCFQGSHVPPWTFGGGTKLEIKRADAAPTVSIFPPSSEQLTSGGASVVCFLNNFYPKDINVKWKIDGSERQNGVLNSWTDQDSKDSTYSMSSTLTLTKDEYERHNSYTCEATHKTSTSPIVKSFNRNEC
notes: Full-length H and L chain of LpMab-7 expressed in CHO cells; also called recombinant LpMab-7
binding result [15]: binds

B3: chLpMab-7 (antibody, human IgG1, kappa)
heavy: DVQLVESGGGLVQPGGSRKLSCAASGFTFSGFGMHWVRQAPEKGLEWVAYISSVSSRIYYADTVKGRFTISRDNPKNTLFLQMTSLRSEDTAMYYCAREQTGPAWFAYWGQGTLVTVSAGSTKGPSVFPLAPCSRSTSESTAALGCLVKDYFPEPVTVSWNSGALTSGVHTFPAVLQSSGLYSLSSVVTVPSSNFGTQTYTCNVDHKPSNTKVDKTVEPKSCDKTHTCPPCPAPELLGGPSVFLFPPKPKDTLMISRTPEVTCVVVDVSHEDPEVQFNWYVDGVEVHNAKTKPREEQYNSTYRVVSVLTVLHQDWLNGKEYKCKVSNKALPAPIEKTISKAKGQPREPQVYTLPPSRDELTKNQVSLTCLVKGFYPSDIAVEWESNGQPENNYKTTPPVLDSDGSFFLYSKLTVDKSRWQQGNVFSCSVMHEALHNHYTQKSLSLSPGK
light: B2 light
notes: culture supernatant used; also called human chimeric LpMab-7
binding result [15]: binds

B5: chLpMab-3 (antibody, human IgG1, kappa, V domains shown)
VH: EVQLVESGGGLVKPGGSLKLSCAASGFTFTRYAMSWVRQTPEKRLEWVATISNGGSYTYYLDSVKGRFTLSRDNAKNTLYLQMSSLRSEDTAMYYCARREGGQAGPAWFVYWGQGTLVTVSA
VL: DIVMTQSPSSLAMSVGQKVTMNCKSSQSLLNSSNQKNYLAWYQQKPGQSPKLLVYFASTRESGVPDRFIGSGSGTDFTLTISSAQAEDLADYFCQQYYSTPPTFGAGTKLELKR
notes: culture supernatant used; also called human chimeric LpMab-3
binding result [15]: binds

The remaining lines, values ahead:

binding result [1]: binds
binding result [2]: binds
binding result [3]: binds
binding result [4]: binds
binding result [5]: binds
binding result [6]: binds
binding result [7]: binds
binding result [8]: binds
binding result [9]: binds
binding result [10]: binds
binding result [11]: binds
binding result [12]: binds
binding result [13]: binds
binding result [14]: binds
B1: LpMab-7 (antibody)
heavy: B2 heavy
light: B2 light
notes: Mouse IgG1, kappa, from hybridoma; Entries may hold the signal peptide

binding result [15]: binds
B4: chLpMab-23 (antibody, human IgG1, kappa, V domains shown)
VH: QVQLKESGPGLVAPSQSLSITCTVSGFSVTSYGIHWVRQPPGKGLEWLGVIWTSGNTNYNSALMSRLSISRDNSKSQVFLKMNSLQTDDTAMYYCAREDYYGYAMDYWGQGTSVTVSS
VL: not shown
notes: Variable regions of LpMab-23 with human IgG1 constant region; Culture supernatant used; also called human chimeric LpMab-23 antibody
